Measured values published in patent publication US20180134794A1 (Regeneron, published 2018).

target: human MET (c-Met, hepatocyte growth factor receptor), endogenous on human cell lines (human, UniProt P08581 25-1390); test: cell-based or functional assay
Throughout, for % Inhibition (HEK293/SRE-Luc Blocking Activity, 1 h mAb pre-bind): test concentration or dose not given here.

Chain of human MET (c-Met, hepatocyte growth factor receptor), endogenous on human cell lines (P08581 25-1390 limits assumed, form in doubt): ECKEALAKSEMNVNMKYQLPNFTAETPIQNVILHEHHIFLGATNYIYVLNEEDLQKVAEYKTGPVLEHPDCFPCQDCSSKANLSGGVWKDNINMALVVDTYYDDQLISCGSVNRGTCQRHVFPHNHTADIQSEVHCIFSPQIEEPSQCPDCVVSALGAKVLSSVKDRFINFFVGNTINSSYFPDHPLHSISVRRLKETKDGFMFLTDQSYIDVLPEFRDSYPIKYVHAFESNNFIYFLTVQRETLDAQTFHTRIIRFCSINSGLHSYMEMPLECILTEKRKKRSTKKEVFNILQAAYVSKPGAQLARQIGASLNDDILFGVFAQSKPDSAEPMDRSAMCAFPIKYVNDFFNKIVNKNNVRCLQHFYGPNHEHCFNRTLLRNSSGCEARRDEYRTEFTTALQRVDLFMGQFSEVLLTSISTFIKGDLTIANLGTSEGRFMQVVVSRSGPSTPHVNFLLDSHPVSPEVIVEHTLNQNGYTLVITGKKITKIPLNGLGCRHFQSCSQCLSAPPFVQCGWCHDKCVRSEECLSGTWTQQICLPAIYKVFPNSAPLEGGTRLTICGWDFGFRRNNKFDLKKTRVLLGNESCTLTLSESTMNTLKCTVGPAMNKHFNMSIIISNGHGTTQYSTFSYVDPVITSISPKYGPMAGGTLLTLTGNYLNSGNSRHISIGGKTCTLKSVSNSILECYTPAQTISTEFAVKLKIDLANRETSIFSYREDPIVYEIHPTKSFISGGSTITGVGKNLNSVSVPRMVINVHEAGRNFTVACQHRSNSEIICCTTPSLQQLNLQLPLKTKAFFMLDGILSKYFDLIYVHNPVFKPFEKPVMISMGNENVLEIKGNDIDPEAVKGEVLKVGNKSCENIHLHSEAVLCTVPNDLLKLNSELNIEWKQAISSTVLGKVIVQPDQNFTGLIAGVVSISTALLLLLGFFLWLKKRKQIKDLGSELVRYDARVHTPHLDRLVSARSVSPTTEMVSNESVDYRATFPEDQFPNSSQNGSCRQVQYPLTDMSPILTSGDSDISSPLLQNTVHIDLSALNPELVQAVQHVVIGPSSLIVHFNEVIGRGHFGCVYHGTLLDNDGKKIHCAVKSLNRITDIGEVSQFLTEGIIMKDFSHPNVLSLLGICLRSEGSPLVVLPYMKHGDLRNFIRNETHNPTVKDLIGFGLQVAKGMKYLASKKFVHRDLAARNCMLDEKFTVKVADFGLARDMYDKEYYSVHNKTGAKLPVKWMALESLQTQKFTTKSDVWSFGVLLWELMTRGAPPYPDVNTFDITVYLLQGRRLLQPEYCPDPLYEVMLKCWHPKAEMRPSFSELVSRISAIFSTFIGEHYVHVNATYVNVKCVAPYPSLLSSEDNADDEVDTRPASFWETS

Binder | % Inhibition (HEK293/SRE-Luc Blocking Activity, 1 h mAb pre-bind) | EC50 (Ligand (HGF)-Independent HEK293/SRE-Luc Activation) | Fold Response (Ligand (HGF)-Independent HEK293/SRE-Luc Activation) | IC50 (HEK293/SRE-Luc Blocking Activity, 1 h mAb pre-bind)
H4H13299P2 (antibody, human IgG4, V domains shown) VH: EVQLVESGGGLVQPGGSLRLSCAASGFIFSNYEMNWVRQAPGKGLEWISYITSSGNMKYYADSVKGRFTISRDNDKNSLYLQMSSLRVEDTAVYYCVRGGRFLEWLTYYVMVVWGQGTTVTVSS VL: not shown | 51% | 0.0037 nM | 14.4 fold | 
H4H13325P2 (antibody, human IgG4, V domains shown) VH: EVQLLESGGGWVQPGGSLRLSCAASGFAFSNYAMNWVRQTPGKGLEWVSVISSSGGNTYYADSVKGRFAISRDNSRDTLHLQMNRLRVEDTAVYYCAKEIRPYYDLSYYYGMDVWGQGTTVTVSS VL: not shown | 69% | 0.19 nM | 4.3 fold | 0.013 nM
H4H13306P2 (antibody, human IgG4, V domains shown) VH: EVQLVESGGGLVQPGTSLRLSCAASGFTFDDYAMHWVRQAPGKGLEWVSGITWNSYNIDYADSVKGRFTISRDNAKNSLYLQMNSLRAEDTALYYCAKDDDYSNYVYFDYWGQGTLVTVSS VL: not shown |  | 0.013 nM |  | 
H4H13290P2 (antibody, human IgG4, V domains shown) VH: QVQLQESGPGLVKPSETLSLTCTVSGDSISSYYWTWIRQPPGKGLEWIGYIFYRGGTTYNPSLKSRVTISVDTSKNQFSLKLRSVTAADTAVYYCARGDDLLVVTSVYWYIDLWGRGTLVTVSS VL: not shown | 56% | < 0.002 nM | 9.8 fold | < 0.002 nM
H4H16447D (bispecific antibody, human IgG4, V domains shown) VH 1: QVQLVESGGGVVQPGRSLRLSCAASGFTFSSYAMHWVRQAPGRGLEWVAVIWHDGDVEYYVDSVKDRFTISRDNSKSTLYLQMNSLRAEDTALYYCAREAWDLLRPFDYWGQGTLVTVSS VH 2: EVQLVESGGGLVQPGGSLRLSCAASGFIVTTNYMTWLRQAPGKGLEWVSLIYSSGHTYYADSVKGRFTISRHNSKNTLYLQMDSLRAEDTAVYYCASAFAADVFDIWGQGTMVTVSS VL: not shown | 76% | 1.4 nM |  | 
H4H16448D (bispecific antibody, human IgG4, V domains shown) VH 1: QVQLVESGGGVVQPGRSLRLSCVASGFSFSNFGMHWVRQAPGKGLEWVAIIWYDGSNKYYSDSVKGRFTISRDNSKNTLYLQMNSLRVDDTAVYYCARFDRWKFDAFDIWGQGTMVTVSS VH 2: EVQLVESGGGLVQPGGSLRLSCAASGFIVTTNYMTWLRQAPGKGLEWVSLIYSSGHTYYADSVKGRFTISRHNSKNTLYLQMDSLRAEDTAVYYCASAFAADVFDIWGQGTMVTVSS VL: not shown | 87% | 0.91 nM | 4.3 fold | 0.62 nM
H4H16449D (bispecific antibody, human IgG4, V domains shown) VH 1: QVQLVESGGGVVQPGRSLRLSCAASGFTFSSFAMHWVRQAPGKGLEWVAVIWYDGSNDYYAASVKGRFTISRDNSKNTLYLEMNRLRAEDTAVYHCARDNWNYWGGMDVWGQGTTVTVSS VH 2: EVQLVESGGGLVQPGGSLRLSCAASGFIVTTNYMTWLRQAPGKGLEWVSLIYSSGHTYYADSVKGRFTISRHNSKNTLYLQMDSLRAEDTAVYYCASAFAADVFDIWGQGTMVTVSS VL: not shown | 85% | 0.42 nM | 4.2 fold | 0.32 nM
H4H13311P2 (antibody, human IgG4, V domains shown) VH: QVQLVESGGGVVQPGRSLRLSCAASGFTFSSYAMHWVRQAPGRGLEWVAVIWHDGDVEYYVDSVKDRFTISRDNSKSTLYLQMNSLRAEDTALYYCAREAWDLLRPFDYWGQGTLVTVSS VL: not shown | 62% | 0.3 nM | 5.2 fold | 0.035 nM
H4H13312P2 (antibody, human IgG4, V domains shown) VH: EVQLVESGGGLVQPGGSLRLSCAASGFIVTTNYMTWLRQAPGKGLEWVSLIYSSGHTYYADSVKGRFTISRHNSKNTLYLQMDSLRAEDTAVYYCASAFAADVFDIWGQGTMVTVSS VL: not shown | 48% | 0.12 nM |  | 
H1H13316P2 (antibody, V domains shown) VH: EVQLVESGGGLVQPGGSLRLSCAASGFTFRSYVMSWFRQAPGKGLEWVSGMSGSGGSTSYADSVKGRFTISRDNSKNTLYLLMNSLRTEDTAVYYCAKENGANWNYGYYGMDVWGQGTTVTVSS VL: not shown | 86% |  | 1.7 fold | 0.04 nM
H4H13316P2 (antibody, human IgG4, V domains shown) VH: EVQLVESGGGLVQPGGSLRLSCAASGFTFRSYVMSWFRQAPGKGLEWVSGMSGSGGSTSYADSVKGRFTISRDNSKNTLYLLMNSLRTEDTAVYYCAKENGANWNYGYYGMDVWGQGTTVTVSS VL: not shown | 74% | 0.047 nM | 2.3 fold | 0.0078 nM
H4H13313P2 (antibody, human IgG4, V domains shown) VH: QVQLVESGGGVVQPGRSLRLSCSASGFSFSHFGMHWVRQVPGGGLEWVTSIWFDGSNRYYADSLKGRFTISRDNSKNTLYLEMNSLRAEDTAVYYCVREGILGTTNPYDVFDVWGQGTMVTVSS VL: not shown | 47% |  | 1.2 fold | 2.3 nM
H4H13318P2 (antibody, human IgG4, V domains shown) VH: QVQLVESGGGVVQPGRSLRLSCVASGFSFSNFGMHWVRQAPGKGLEWVAIIWYDGSNKYYSDSVKGRFTISRDNSKNTLYLQMNSLRVDDTAVYYCARFDRWKFDAFDIWGQGTMVTVSS VL: not shown | 77% |  | 3.1 fold | 0.1 nM
H4H13331P2 (antibody, human IgG4, V domains shown) VH: QVQLQESGPGLVKSSETLSLTCTVSGGSIRNFYWSWLRQPPGKGLEWIGHINYNGGTDYNPSLKSRVTISVDTSKNQFSLNLNSVTAADTAVYYCARQRFYGMDVWGPGTTVTVSS VL: not shown | 75% | 0.0023 nM | 7.1 fold | < 0.01 nM
H4H13295P2 (antibody, human IgG4, V domains shown) VH: QVQLVESGGGVVQPGRSLRVSCVVSGFTFSSFGMHWVRQAPDKGLEWVAVIWYDGSNDYYSDSVKGRFTISRDNSKNTLFLQMNRLRAEDTAVYYCARANNWNRFDAFDLWGQGTMVTVSS VL: not shown | 70% | 0.3 nM | 2.8 fold | 0.055 nM
H4H13300P2 (antibody, human IgG4, V domains shown) VH: QVQLVESGGGVVQPGRSLRLSCAVSGFTFSSYGMHWVRQAPGKGLEWVANIWYDGTNDYYPYSVKGRFTISRDNSQNTLYLQMNSLRAEDTAVYYCAREDFINYRSFDYWGQGTLVTVSS VL: not shown | 69% | 0.48 nM | 2.8 fold | 0.12 nM
H4H13302P2 (antibody, human IgG4, V domains shown) VH: QVQLVESGGGVVQPGRSLRLSCAASGFTFSNFGMHWVRQAPGKGLEWVAGIWFDGSNKNYIDSVKGRFTISRDNSKNTLYLQMNSLRAEDTAVYYCAREGYDSGTDYIPYDIFDIWGQGTMVTVSS VL: not shown | 45% |  | 1.8 fold | 1.6 nM
H4H13291P2 (antibody, human IgG4, V domains shown) VH: QVQLVESGGGVVQPGGSLRLSCAASGFTFSGYGMHWVRQAPGKGLEWMAVIWYDGSNDYYPDSVKGRFTISRDNSKNTLYLQMNSLRVEDTAVYYCARDAWDLLRSFDYWGQGTLVTVSS VL: not shown | 61% | 0.39 nM | 2.7 fold | 0.13 nM
H4H13309P2 (antibody, human IgG4, V domains shown) VH: QVQLVQSGTEVKEPGASVKVSCKASGYSFTTYGISWLRQAPGQGLEWMGWISTYNGDTISAQMLQDRVTLTADTSTRTAYMELRSLRSDDTAVYYCARGHEYDSLVYSYWGQGTLVTVSS VL: not shown | 77% | 0.39 nM | 9.2 fold | 0.2 nM
H1H13301P2 (antibody, V domains shown) VH: QVQLVESGGGVVQPGTSLRLSCVASGFTFRNFGMHWVRQAPGKGLEWVANIWFDGSNENYVESIQGRFTISRDNSKNTLNLQMNSLRAEDSAVYYCVREGILGTTNPYDAFDVWGQGTMVTVSS VL: not shown | 42% |  | 1.4 fold | 3.3 nM
H4H13301P2 (antibody, human IgG4, V domains shown) VH: QVQLVESGGGVVQPGTSLRLSCVASGFTFRNFGMHWVRQAPGKGLEWVANIWFDGSNENYVESIQGRFTISRDNSKNTLNLQMNSLRAEDSAVYYCVREGILGTTNPYDAFDVWGQGTMVTVSS VL: not shown | 40% |  | 1.6 fold | 1.5 nM
H4H13319P2 (antibody, human IgG4, V domains shown) VH: QVQLVESGGGVVQPGRSLRLSCAASGFTFSSFAMHWVRQAPGKGLEWVAVIWYDGSNDYYAASVKGRFTISRDNSKNTLYLEMNRLRAEDTAVYHCARDNWNYWGGMDVWGQGTTVTVSS VL: not shown | 67% | 0.18 nM | 4.8 fold | 0.052 nM
